Assay results as given in patent publication US5434246A, “Parathyroid hormone derivatives” (Takeda Chemical Industries, Ltd., priority 1992, dated 1995).
Values joined by “and” are separate entries in the source; they are usually repeats but may differ in a detail not shown here. Identical values can stand only once. Square brackets hold non-standard residues; d marks the D form. Ends that are not written are not given here. Peptide text beside a SMILES is read from it. hCit = NC(=O)NCCCC[C@H](N)C(=O)O

Experiments:
[1] = target: PTH receptor (mouse) (UniProt P41593)
[2] = target: T1, PTH receptor (Mus musculus, UniProt P41593); assay: cAMP production in MC3T3-EI osteoblast-like cells (biological activity of PTH(1-34) derivatives); format: cell-based; details: 0.01-100 nM derivative, room temperature 30 minutes, hPTH(1-34) standard = 1.00
T1 construct: a mouse cranial bone-derived osteoblast-like cell strain, MC3T3-EI cells; endogenous in cells; host or cells: MC3T3-E1 mouse osteoblast-like cells
T1 sequence (P41593 27-591): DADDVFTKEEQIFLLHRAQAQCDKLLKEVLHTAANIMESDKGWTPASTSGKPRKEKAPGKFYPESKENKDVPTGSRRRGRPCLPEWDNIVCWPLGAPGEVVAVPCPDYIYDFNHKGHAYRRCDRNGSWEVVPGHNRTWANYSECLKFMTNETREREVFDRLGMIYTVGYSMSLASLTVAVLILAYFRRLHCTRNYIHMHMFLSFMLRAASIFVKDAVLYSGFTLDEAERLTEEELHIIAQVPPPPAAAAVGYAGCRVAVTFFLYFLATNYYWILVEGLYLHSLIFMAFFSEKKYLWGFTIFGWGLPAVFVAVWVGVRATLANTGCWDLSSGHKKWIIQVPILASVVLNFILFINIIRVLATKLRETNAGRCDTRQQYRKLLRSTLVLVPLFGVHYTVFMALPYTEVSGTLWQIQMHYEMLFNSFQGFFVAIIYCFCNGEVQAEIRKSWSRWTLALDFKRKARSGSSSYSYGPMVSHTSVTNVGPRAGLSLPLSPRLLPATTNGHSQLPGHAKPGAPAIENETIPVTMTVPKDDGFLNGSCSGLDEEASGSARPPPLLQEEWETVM
Experimental: The biological activity of the PTH (1-34) derivatives was evaluated by a modified version of the method reported by Shigeno et al. in The Journal of Biological Chemistry 263, 18369-18377 (1988). A culture solution (Hank's solution, containing 20 mM N-2-hydroxyethylpiperazine-N'-2-ethanesulfonic acid-(HEPES), 0.1% bovine serum albumin and 0.5 mM isobutylmethyl-xanthine) containing a 0.01, 0.1, 1, 10 or 100 nM derivative was added in an amount of 100 μl to a mouse cranial bone-derived osteoblast-like cell strain, MC3T3-EI cells, cultivated on a 96-well multiplate (Nunclon, Nunc), followed by reaction at room temperature for 30 minutes. After addition of 100 μl of 0.2N hydrochloric acid, the mixture was immersed in boiling water for 2.5 minutes, and cyclic adenosine monophosphate (cAMP) produced by a PTH receptor was extracted from the cells. The total cAMP in the culture solution and the cells was assayed using a commercial radioimmunoassay kit (cyclic AMP [^125 I] kit "Du Pont-Daiichi", Daiichi Kagaku Yakuhin).

cAMP production in MC3T3-E1 cells, relative activity to hPTH(1-34) (relative activity to hPTH(1-34)) [1]	Biological Activity, Represented by Relative Activity to hPTH(1-34) [2]	Compound
–	0.96	CC[C@H](C)[C@H](NC(=O)[C@H](CCC(=O)O)NC(=O)[C@H](CO)NC(=O)[C@@H](NC(=O)[C@@H](N)CO)C(C)C)C(=O)N[C@@H](CCC(N)=O)C(=O)N[C@@H](CC(C)C)C(=O)N[C@@H](CCSC)C(=O)N[C@@H](Cc1c[nH]cn1)C(=O)N[C@@H](CC(N)=O)C(=O)N[C@@H](CC(C)C)C(=O)NCC(=O)N[C@@H](CCCCN)C(=O)N[C@@H](Cc1c[nH]cn1)C(=O)N[C@@H](CC(C)C)C(=O)N[C@@H](CC(N)=O)C(=O)N[C@@H](CO)C(=O)N[C@@H](CCSC)C(=O)N[C@@H](CCC(=O)O)C(=O)N[C@@H](CCCNC(=N)N)C(=O)N[C@H](C(=O)N[C@@H](CCC(=O)O)C(=O)N[C@@H](Cc1c[nH]c2ccccc12)C(=O)N[C@@H](CC(C)C)C(=O)N[C@@H](CCCNC(=N)N)C(=O)N[C@@H](CCCCN)C(=O)N[C@H](C(=O)N[C@@H](CC(C)C)C(=O)N[C@@H](CCC(N)=O)C(=O)N[C@@H](CC(=O)O)C(=O)N[C@H](C(=O)N[C@@H](Cc1c[nH]cn1)C(=O)N[C@@H](CC(N)=O)C(=O)N[C@@H](Cc1ccccc1)C(=O)O)C(C)C)[C@@H](C)O)C(C)C [[Thr^27]hPTH(1-34)]
2.17	–	[D-Ala^3 ]hPTH(1-34) (from UniProt P01270) (peptide)
5.48 and 3.37	–	[Lys^16 ]hPTH(1-34) (from UniProt P01270) (peptide)
1.24	–	[Lys^16,Asp^17 ]hPTH(1-34) (from UniProt P01270) (peptide)
0.98	–	[Arg^26,27 ]hPTH(1-34) (from UniProt P01270) (peptide)
0.41	–	[Gln^25,26,27 ]hPTH(1-34) (from UniProt P01270) (peptide)
–	1.54	CC[C@H](C)[C@H](NC(=O)[C@H](CCC(=O)O)NC(=O)[C@H](CO)NC(=O)[C@@H](NC(=O)[C@@H](N)CO)C(C)C)C(=O)N[C@@H](CCC(N)=O)C(=O)N[C@@H](CC(C)C)C(=O)N[C@@H](CCSC)C(=O)N[C@@H](Cc1c[nH]cn1)C(=O)N[C@@H](CC(N)=O)C(=O)N[C@@H](CC(C)C)C(=O)NCC(=O)N[C@@H](CCCCN)C(=O)N[C@@H](Cc1c[nH]cn1)C(=O)N[C@@H](CC(C)C)C(=O)N[C@@H](CCCCNC(N)=O)C(=O)N[C@@H](CO)C(=O)N[C@@H](CCSC)C(=O)N[C@@H](CCC(=O)O)C(=O)N[C@@H](CCCNC(=N)N)C(=O)N[C@H](C(=O)N[C@@H](CCC(=O)O)C(=O)N[C@@H](Cc1c[nH]c2ccccc12)C(=O)N[C@@H](CC(C)C)C(=O)N[C@@H](CCCNC(=N)N)C(=O)N[C@@H](CCCCN)C(=O)N[C@@H](CCC(N)=O)C(=O)N[C@@H](CC(C)C)C(=O)N[C@@H](CCC(N)=O)C(=O)N[C@@H](CC(=O)O)C(=O)N[C@H](C(=O)N[C@@H](Cc1c[nH]cn1)C(=O)N[C@@H](CC(N)=O)C(=O)N[C@@H](Cc1ccccc1)C(=O)O)C(C)C)C(C)C [[Hci^16,Gln^27]hPTH(1-34)] (H-SVSEIQLMHNLGKHL[hCit]SMERVEWLRKQLQDVHNF-OH)
–	8.85	SVSEIQLMHNLGKHLKKMERVEWLRKKLQDVHNF [[Lys^16,17]hPTH(1-34)]
0.96	–	[Thr^27 ]hPTH(1-34) (from UniProt P01270) (peptide)
1.54	–	[Hci^16,Gln^27 ]hPTH(1-34) (from UniProt P01270) (peptide)
0.86	–	[D-Lys^16 ]hPTH(1-34) (from UniProt P01270) (peptide)
1.55	–	[Glu^16 ]hPTH(1-34) (from UniProt P01270) (peptide)
1.49	–	[Lys^15,16,His^27 ]hPTH(1-34) (from UniProt P01270) (peptide)
1.73	–	[Gln^16 ]hPTH(1-34) (from UniProt P01270) (peptide)
2.16	–	[Arg^16,Gln^27 ]hPTH(1-34) (from UniProt P01270) (peptide)

The remaining lines, values behind:

Compound	cAMP production in MC3T3-E1 cells, relative activity to hPTH(1-34) (relative activity to hPTH(1-34)) [1]	Biological Activity, Represented by Relative Activity to hPTH(1-34) [2]
[Orn^16,Gln^27 ]hPTH(1-34) (from UniProt P01270) (peptide)	1.82	–
CC[C@H](C)[C@H](NC(=O)[C@H](CCC(=O)O)NC(=O)[C@H](CO)NC(=O)[C@@H](NC(=O)[C@@H](N)CO)C(C)C)C(=O)N[C@@H](CCC(N)=O)C(=O)N[C@@H](CC(C)C)C(=O)N[C@@H](CCSC)C(=O)N[C@@H](Cc1c[nH]cn1)C(=O)N[C@@H](CC(N)=O)C(=O)N[C@@H](CC(C)C)C(=O)NCC(=O)N[C@@H](CCCCN)C(=O)N[C@@H](Cc1c[nH]cn1)C(=O)N[C@@H](CC(C)C)C(=O)N[C@H](CCCCN)C(=O)N[C@@H](CO)C(=O)N[C@@H](CCSC)C(=O)N[C@@H](CCC(=O)O)C(=O)N[C@@H](CCCNC(=N)N)C(=O)N[C@H](C(=O)N[C@@H](CCC(=O)O)C(=O)N[C@@H](Cc1c[nH]c2ccccc12)C(=O)N[C@@H](CC(C)C)C(=O)N[C@@H](CCCNC(=N)N)C(=O)N[C@@H](CCCCN)C(=O)N[C@@H](CCCCN)C(=O)N[C@@H](CC(C)C)C(=O)N[C@@H](CCC(N)=O)C(=O)N[C@@H](CC(=O)O)C(=O)N[C@H](C(=O)N[C@@H](Cc1c[nH]cn1)C(=O)N[C@@H](CC(N)=O)C(=O)N[C@@H](Cc1ccccc1)C(=O)O)C(C)C)C(C)C [[D-Lys^16]hPTH(1-34)]	–	0.86
SVSEIQLMHNLGKHLKDMERVEWLRKKLQDVHNF [[Lys^16,Asp^17]hPTH(I-34), [Lys^16 Asp^17]hPTH(1-3)]	–	1.24
CC[C@H](C)[C@H](NC(=O)[C@H](CCC(=O)O)NC(=O)[C@H](CO)NC(=O)[C@@H](NC(=O)[C@@H](N)CO)C(C)C)C(=O)N[C@@H](CCC(N)=O)C(=O)N[C@@H](CC(C)C)C(=O)N[C@@H](CCSC)C(=O)N[C@@H](Cc1c[nH]cn1)C(=O)N[C@@H](CC(N)=O)C(=O)N[C@@H](CC(C)C)C(=O)NCC(=O)N[C@@H](CCCCN)C(=O)N[C@@H](Cc1c[nH]cn1)C(=O)N[C@@H](CC(C)C)C(=O)N[C@@H](CCC(N)=O)C(=O)N[C@@H](CO)C(=O)N[C@@H](CCSC)C(=O)N[C@@H](CCC(=O)O)C(=O)N[C@@H](CCCNC(=N)N)C(=O)N[C@H](C(=O)N[C@@H](CCC(=O)O)C(=O)N[C@@H](Cc1c[nH]c2ccccc12)C(=O)N[C@@H](CC(C)C)C(=O)N[C@@H](CCCNC(=N)N)C(=O)N[C@@H](CCCCN)C(=O)N[C@@H](CCCCN)C(=O)N[C@@H](CC(C)C)C(=O)N[C@@H](CCC(N)=O)C(=O)N[C@@H](CC(=O)O)C(=O)N[C@H](C(=O)N[C@@H](Cc1c[nH]cn1)C(=O)N[C@@H](CC(N)=O)C(=O)N[C@@H](Cc1ccccc1)C(=O)O)C(C)C)C(C)C [[Gln^16]hPTH(1-34)]	–	1.73
SVSEIQLMHNLGKHLNSMERVEWLRRRLQDVHNF [[Arg^26,27]hPTH (1-34), [Arg^26,27]hPTH(1-34)]	–	0.98
[Lys^15,16,17 ]hPTH(1-34) (from UniProt P01270) (peptide)	7.62	–
[Thr^16 ]hPTH(1-34) (from UniProt P01270) (peptide)	1.74	–
[Gln^26,27 ]hPTH(1-34) (from UniProt P01270) (peptide)	1.19	–
[Lys^15,16,17,His^27 ]hPTH(1-34) (from UniProt P01270) (peptide)	7.47	–
[Lys^16,17 ]hPTH(1-34) (from UniProt P01270) (peptide)	8.85	–
[Lys^14,15,16,17 ]hPTH(1-34) (from UniProt P01270) (peptide)	6.39	–
